Publication PMC4627809, “Client Proteins and Small Molecule Inhibitors Display Distinct Binding Preferences for Constitutive and Stress-Induced HSP90 Isoforms and Their Conformationally Restricted Mutants” (PLoS ONE, 2015)

Biological target: T1, FLAG-HSP90α wild type (human, UniProt P07900 1-732)
T1 construct: HSP90α, stress-inducible cytosolic HSP90 isoform, encoded by HSP90AA1, human; The plasmid list names only pcDNA3-FLAG-HSP90α; the LUMIER methods call the protein 3XFLAG-tagged; also called HSP90α WT; 3XFLAG-HSP90α; source: HEK293, transfected, in lysate
Test: LUMIER; HEK293 in 96-well plates co-transfected with NanoLuc-client and 3XFLAG-HSP90α or β; TGNET lysate on anti-FLAG antibody-coated plate 2 h at 4°C; NanoLuc read-out divided by anti-FLAG-HRP read-out = relative interaction strength
Settings: partners not purified

- fold difference in relative interaction strength, HSP90α against HSP90β: ~3 fold
B1: NL-RHOBTB2/DBC2 (natural protein, UniProt Q9BYZ6 1-727, looked up)
chain: MDSDMDYERPNVETIKCVVVGDNAVGKTRLICARACNATLTQYQLLATHVPTVWAIDQYRVCQEVLERSRDVVDDVSVSLRLWDTFGDHHKDRRFAYGRSDVVVLCFSIANPNSLHHVKTMWYPEIKHFCPRAPVILVGCQLDLRYADLEAVNRARRPLARPIKPNEILPPEKGREVAKELGIPYYETSVVAQFGIKDVFDNAIRAALISRRHLQFWKSHLRNVQRPLLQAPFLPPKPPPPIIVVPDPPSSSEECPAHLLEDPLCADVILVLQERVRIFAHKIYLSTSSSKFYDLFLMDLSEGELGGPSEPGGTHPEDHQGHSDQHHHHHHHHHGRDFLLRAASFDVCESVDEAGGSGPAGLRASTSDGILRGNGTGYLPGRGRVLSSWSRAFVSIQEEMAEDPLTYKSRLMVVVKMDSSIQPGPFRAVLKYLYTGELDENERDLMHIAHIAELLEVFDLRMMVANILNNEAFMNQEITKAFHVRRTNRVKECLAKGTFSDVTFILDDGTISAHKPLLISSCDWMAAMFGGPFVESSTREVVFPYTSKSCMRAVLEYLYTGMFTSSPDLDDMKLIILANRLCLPHLVALTEQYTVTGLMEATQMMVDIDGDVLVFLELAQFHCAYQLADWCLHHICTNYNNVCRKFPRDMKAMSPENQEYFEKHRWPPVWYLKEEDHYQRARKEREKEDYLHLKRQPKRRWLFWNSPSSPSSSAASSSSPSSSSAVV
notes: E3-ubiquitin ligase RHOBTB2/DBC2; also called RHOBTB2 fused to NanoLuc luciferase; source: HEK293, transfected, in lysate; not shown: NanoLuc luciferase, N-terminal, kept
